The source of these data is US20250034549.

Data set [1] concerns the target v2.1 BE-VLP gag-ABE8e fusion.
Data set [2] concerns the target v2.2 BE-VLP gag-ABE8e fusion.
Data set [3] concerns the target v2.3 BE-VLP gag-ABE8e fusion.
The target in data set [4] is v2.4 BE-VLP gag-ABE8e fusion.

B1: MMLV protease (protein)
chain: TLDDQGGQGQEPPPEPRITLKVGGQPVTFLVDTGAQHSVLTQNPGPLSDKSAWVQGATGGKRYRWTTDRKVHLATGKVTHSFLHVPDCPYPLLGRDLLTKLKAQIHFEGSGAQVMGPMGQPLQVL
Consider B1, for which the “fraction of cleaved ABE8e versus full-length gag-ABE8e present in purified BE-VLPs (western blot)” value was “the v2.4 linker is cleaved more efficiently than the v2.1 and v2.2 linkers, but less efficiently than the v2.3 linker” in data set [1]; “the v2.4 linker is cleaved more efficiently than the v2.1 and v2.2 linkers, but less efficiently than the v2.3 linker” in data set [2]; “the v2.4 linker is cleaved more efficiently than the v2.1 and v2.2 linkers, but less efficiently than the v2.3 linker” in data set [3]; “the v2.4 linker is cleaved more efficiently than the v2.1 and v2.2 linkers, but less efficiently than the v2.3 linker” in data set [4].
